B1: SEQ ID NO: 129 (Example No. 129) (peptide)
peptide: cyclo([TyrEtNAc]W[Phe(4-COOH)]G[Pro(trans-4-NH2)][1Nal(3S-Me)]N[dNMeA]G[Bip(4'-COOH)]W[Dap][dA][hTyr])
SMILES: CC(=O)NCCOc1ccc(C[C@@H]2NC(=O)[C@H](CCc3ccc(O)cc3)NC(=O)[C@@H](C)NC(=O)[C@H](CN)NC(=O)[C@H](Cc3c[nH]c4ccccc34)NC(=O)[C@H](Cc3ccc(-c4ccc(C(=O)O)cc4)cc3)NC(=O)CNC(=O)[C@@H](C)N(C)C(=O)[C@H](CC(N)=O)NC(=O)[C@H]([C@@H](C)c3cccc4ccccc34)NC(=O)[C@@H]3C[C@@H](N)CN3C(=O)CNC(=O)[C@H](Cc3ccc(C(=O)O)cc3)NC(=O)[C@H](Cc3c[nH]c4ccccc34)NC2=O)cc1
B2: SEQ ID NO: 133 (Example No. 133) (peptide)
peptide: cyclo([TyrEtNAc]W[Phe(4-COOH)]G[Pro(trans-4-NH2)][Trp(4-Cl)(βS-Me)]D[dNMeA]G[Bip(4'-COOH)][1Nal]S[dA][Phe(4-NH2)])
SMILES: CC(=O)NCCOc1ccc(C[C@@H]2NC(=O)[C@H](Cc3ccc(N)cc3)NC(=O)[C@@H](C)NC(=O)[C@H](CO)NC(=O)[C@H](Cc3cccc4ccccc34)NC(=O)[C@H](Cc3ccc(-c4ccc(C(=O)O)cc4)cc3)NC(=O)CNC(=O)[C@@H](C)N(C)C(=O)[C@H](CC(=O)O)NC(=O)[C@H]([C@@H](C)c3c[nH]c4cccc(Cl)c34)NC(=O)[C@@H]3C[C@@H](N)CN3C(=O)CNC(=O)[C@H](Cc3ccc(C(=O)O)cc3)NC(=O)[C@H](Cc3c[nH]c4ccccc34)NC2=O)cc1
B3: SEQ ID NO: 134 (Example No. 134) (peptide)
peptide: cyclo([TyrEtNAc]W[Phe(4-COOH)]G[Pro(trans-4-NH2)][Trp(4-Cl)(βS-Me)]D[dNMeA]G[Bip(4'-COOH)][4Pal][Dab][dA][hTyr])
SMILES: CC(=O)NCCOc1ccc(C[C@@H]2NC(=O)[C@H](CCc3ccc(O)cc3)NC(=O)[C@@H](C)NC(=O)[C@H](CCN)NC(=O)[C@H](Cc3ccncc3)NC(=O)[C@H](Cc3ccc(-c4ccc(C(=O)O)cc4)cc3)NC(=O)CNC(=O)[C@@H](C)N(C)C(=O)[C@H](CC(=O)O)NC(=O)[C@H]([C@@H](C)c3c[nH]c4cccc(Cl)c34)NC(=O)[C@@H]3C[C@@H](N)CN3C(=O)CNC(=O)[C@H](Cc3ccc(C(=O)O)cc3)NC(=O)[C@H](Cc3c[nH]c4ccccc34)NC2=O)cc1
B4: SEQ ID NO: 131 (Example No. 131) (peptide)
peptide: cyclo([TyrEtNAc]W[Phe(4-COOH)]G[Pro(trans-4-NH2)][Trp(4-Cl)(βS-Me)]D[dNMeA]G[Bip(4'-COOH)][1Nal]L[dA][hTyr])
SMILES: CC(=O)NCCOc1ccc(C[C@@H]2NC(=O)[C@H](CCc3ccc(O)cc3)NC(=O)[C@@H](C)NC(=O)[C@H](CC(C)C)NC(=O)[C@H](Cc3cccc4ccccc34)NC(=O)[C@H](Cc3ccc(-c4ccc(C(=O)O)cc4)cc3)NC(=O)CNC(=O)[C@@H](C)N(C)C(=O)[C@H](CC(=O)O)NC(=O)[C@H]([C@@H](C)c3c[nH]c4cccc(Cl)c34)NC(=O)[C@@H]3C[C@@H](N)CN3C(=O)CNC(=O)[C@H](Cc3ccc(C(=O)O)cc3)NC(=O)[C@H](Cc3c[nH]c4ccccc34)NC2=O)cc1
B5: SEQ ID NO: 128 (Example No. 128) (peptide)
peptide: cyclo([TyrEtNAc]W[Phe(4-COOH)]G[Pro(trans-4-NH2)][1Nal(3S-Me)]D[dNMeA]G[Bip(4'-COOH)]WS[dA][hTyr])
SMILES: CC(=O)NCCOc1ccc(C[C@@H]2NC(=O)[C@H](CCc3ccc(O)cc3)NC(=O)[C@@H](C)NC(=O)[C@H](CO)NC(=O)[C@H](Cc3c[nH]c4ccccc34)NC(=O)[C@H](Cc3ccc(-c4ccc(C(=O)O)cc4)cc3)NC(=O)CNC(=O)[C@@H](C)N(C)C(=O)[C@H](CC(=O)O)NC(=O)[C@H]([C@@H](C)c3cccc4ccccc34)NC(=O)[C@@H]3C[C@@H](N)CN3C(=O)CNC(=O)[C@H](Cc3ccc(C(=O)O)cc3)NC(=O)[C@H](Cc3c[nH]c4ccccc34)NC2=O)cc1
B6: SEQ ID NO: 130 (Example No. 130) (peptide)
peptide: cyclo([TyrEtNAc]W[Phe(4-COOH)]G[Pro(trans-4-NH2)][Trp(4-Cl)(βS-Me)]D[dNMeA]G[Bip(4'-COOH)][1Nal][Dap][Aib][h3Pal(5-CN)])
SMILES: CC(=O)NCCOc1ccc(C[C@@H]2NC(=O)[C@H](CCc3cncc(C#N)c3)NC(=O)C(C)(C)NC(=O)[C@H](CN)NC(=O)[C@H](Cc3cccc4ccccc34)NC(=O)[C@H](Cc3ccc(-c4ccc(C(=O)O)cc4)cc3)NC(=O)CNC(=O)[C@@H](C)N(C)C(=O)[C@H](CC(=O)O)NC(=O)[C@H]([C@@H](C)c3c[nH]c4cccc(Cl)c34)NC(=O)[C@@H]3C[C@@H](N)CN3C(=O)CNC(=O)[C@H](Cc3ccc(C(=O)O)cc3)NC(=O)[C@H](Cc3c[nH]c4ccccc34)NC2=O)cc1
B7: SEQ ID NO: 132 (Example No. 132) (peptide)
peptide: cyclo([TyrEtNAc]W[Phe(4-COOH)]G[Pro(trans-4-NH2)][Trp(4-Cl)(βS-Me)]D[dNMeA]G[Bip(4'-COOH)][1Nal][Orn][Aib]G)
SMILES: CC(=O)NCCOc1ccc(C[C@@H]2NC(=O)CNC(=O)C(C)(C)NC(=O)[C@H](CCCN)NC(=O)[C@H](Cc3cccc4ccccc34)NC(=O)[C@H](Cc3ccc(-c4ccc(C(=O)O)cc4)cc3)NC(=O)CNC(=O)[C@@H](C)N(C)C(=O)[C@H](CC(=O)O)NC(=O)[C@H]([C@@H](C)c3c[nH]c4cccc(Cl)c34)NC(=O)[C@@H]3C[C@@H](N)CN3C(=O)CNC(=O)[C@H](Cc3ccc(C(=O)O)cc3)NC(=O)[C@H](Cc3c[nH]c4ccccc34)NC2=O)cc1
B8: SEQ ID NO: 127 (Example No. 127) (peptide)
peptide: cyclo([TyrEtNAc]W[Phe(4-COOH)]G[Pro(trans-4-NH2)][1Nal(3S-Me)]D[dNMeA]G[Bip(4'-COOH)]W[Orn][Aib][hTyr])
SMILES: CC(=O)NCCOc1ccc(C[C@@H]2NC(=O)[C@H](CCc3ccc(O)cc3)NC(=O)C(C)(C)NC(=O)[C@H](CCCN)NC(=O)[C@H](Cc3c[nH]c4ccccc34)NC(=O)[C@H](Cc3ccc(-c4ccc(C(=O)O)cc4)cc3)NC(=O)CNC(=O)[C@@H](C)N(C)C(=O)[C@H](CC(=O)O)NC(=O)[C@H]([C@@H](C)c3cccc4ccccc34)NC(=O)[C@@H]3C[C@@H](N)CN3C(=O)CNC(=O)[C@H](Cc3ccc(C(=O)O)cc3)NC(=O)[C@H](Cc3c[nH]c4ccccc34)NC2=O)cc1
B9: SEQ ID NO: 126 (Example No. 126) (peptide)
peptide: cyclo([TyrEtNAc]W[Phe(4-COOH)]G[Pro(trans-4-NH2)][1Nal(3S-Me)]D[dNMeA]G[Bip(4'-COOH)]WL[dDab][hTyr])
SMILES: CC(=O)NCCOc1ccc(C[C@@H]2NC(=O)[C@H](CCc3ccc(O)cc3)NC(=O)[C@@H](CCN)NC(=O)[C@H](CC(C)C)NC(=O)[C@H](Cc3c[nH]c4ccccc34)NC(=O)[C@H](Cc3ccc(-c4ccc(C(=O)O)cc4)cc3)NC(=O)CNC(=O)[C@@H](C)N(C)C(=O)[C@H](CC(=O)O)NC(=O)[C@H]([C@@H](C)c3cccc4ccccc34)NC(=O)[C@@H]3C[C@@H](N)CN3C(=O)CNC(=O)[C@H](Cc3ccc(C(=O)O)cc3)NC(=O)[C@H](Cc3c[nH]c4ccccc34)NC2=O)cc1

*1 amine or outer side, *2 acyl side, *3 side chain or, on linkers, in order; H or OH if unused. [ ]: non-standard residue; d: D form. TyrEtNAc = L-tyrosine O-ethyl acetamide, (S)-3-(4-(2-acetamidoethoxy)phenyl)-2-aminopropanoic acid, CC(=O)NCCOc1ccc(C[C@H](N[*:1])C(=O)[*:2])cc1; Trp(4-Cl)(βS-Me) = C[C@@H](c1c[nH]c2cccc(Cl)c12)[C@H](N)C(=O)O; Pro(trans-4-NH2) = O=C([C@@H]1C[C@@H](N[*:3])CN1[*:1])[*:2]; Bip(4'-COOH) = N[C@@H](Cc1ccc(-c2ccc(C(=O)O)cc2)cc1)C(=O)O; 1Nal(3S-Me) = C[C@@H](c1cccc2ccccc12)[C@H](N)C(=O)O; Phe(4-COOH) = N[C@@H](Cc1ccc(C(=O)O)cc1)C(=O)O; h3Pal(5-CN) = N#Cc1cncc(CC[C@H](N)C(=O)O)c1; Phe(4-NH2) = Nc1ccc(C[C@H](N)C(=O)O)cc1; 1Nal = N[C@@H](Cc1cccc2ccccc12)C(=O)O; hTyr = N[C@@H](CCc1ccc(O)cc1)C(=O)O; 4Pal = N[C@@H](Cc1ccncc1)C(=O)O; dDab = NCC[C@@H](N)C(=O)O; Orn = NCCC[C@H](N)C(=O)O; dNMeA = CN[C@H](C)C(=O)O; Dab = NCC[C@H](N)C(=O)O; Dap = NC[C@H](N)C(=O)O; Aib = CC(C)(N)C(=O)O

The assay deals with Recombinant human IL-1β (BioLegend 579404) (human, UniProt P01584 117-269). The assay is described as follows: cell-based or functional assay.
As for B1, the “MRC5 IC50” value stood at 0.0828 nM.
For B2 the value was 0.766 nM; for B3, 0.379 nM.
For B4 the value was 0.0498 nM.
For B5, the “MRC5 IC50” value was found to be 0.09 nM.
The same measure for B6: 0.114 nM.
The same measure for B7: 0.37 nM; for B8: 0.432 nM; for B9: 0.37 nM.

(Values after patent US20230406885A1, “CYCLIC PEPTIDES FOR TRAPPING INTERLEUKIN-1 BETA” (MERCK SHARP & DOHME LLC, priority 2022, published 2023).)
